# Results: paper PMC6657692 (Cellular microbiology, 2018)
# T1: Aggregatibacter actinomycetemcomitans leukotoxin (LtxA) (Aggregatibacter actinomycetemcomitans …, UniProt P16462 1-1055)
# T1 sequence: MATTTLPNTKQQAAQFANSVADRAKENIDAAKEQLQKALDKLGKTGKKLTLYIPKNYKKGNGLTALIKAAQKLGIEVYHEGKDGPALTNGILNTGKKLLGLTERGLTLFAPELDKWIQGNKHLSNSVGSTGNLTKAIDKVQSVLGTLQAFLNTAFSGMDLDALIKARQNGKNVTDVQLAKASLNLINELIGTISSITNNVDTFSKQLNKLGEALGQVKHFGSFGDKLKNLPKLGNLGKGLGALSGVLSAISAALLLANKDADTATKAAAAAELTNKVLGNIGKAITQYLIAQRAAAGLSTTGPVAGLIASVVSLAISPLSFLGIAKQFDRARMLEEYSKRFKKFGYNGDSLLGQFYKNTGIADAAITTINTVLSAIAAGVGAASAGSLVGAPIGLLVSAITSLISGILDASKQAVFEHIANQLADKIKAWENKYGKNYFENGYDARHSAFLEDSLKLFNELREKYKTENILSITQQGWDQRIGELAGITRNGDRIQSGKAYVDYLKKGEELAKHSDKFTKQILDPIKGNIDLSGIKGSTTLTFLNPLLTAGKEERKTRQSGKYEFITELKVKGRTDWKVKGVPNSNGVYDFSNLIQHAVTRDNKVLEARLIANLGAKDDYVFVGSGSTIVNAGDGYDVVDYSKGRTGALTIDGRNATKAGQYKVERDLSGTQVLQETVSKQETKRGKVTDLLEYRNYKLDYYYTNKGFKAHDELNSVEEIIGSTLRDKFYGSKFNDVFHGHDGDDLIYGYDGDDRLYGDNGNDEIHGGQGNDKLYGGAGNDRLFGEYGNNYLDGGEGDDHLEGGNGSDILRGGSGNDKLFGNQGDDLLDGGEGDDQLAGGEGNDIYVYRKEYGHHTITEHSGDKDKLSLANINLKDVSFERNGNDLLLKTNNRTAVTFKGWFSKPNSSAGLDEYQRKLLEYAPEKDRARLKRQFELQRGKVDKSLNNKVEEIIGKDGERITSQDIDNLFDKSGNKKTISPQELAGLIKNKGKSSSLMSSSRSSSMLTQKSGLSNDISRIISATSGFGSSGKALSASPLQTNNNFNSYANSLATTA
# Molecular target: T1, Aggregatibacter actinomycetemcomitans …
# Assay: SPR
Binder,Ka,Kd,koff,kon
"CKALIHLSDLREYRRFEKEKLKSQWNNDNPLFKSATTTVMNPKFAES [β2 cytoplasmic tail peptide (integrin β2, LFA-1 β subunit)]",2.4e+08 M⁻¹,4.2 nM,0.0001 s⁻¹,24000 M⁻¹ s⁻¹
"CKALIHLSDLREYRRFEKEKLKSQWNN [β2N2 peptide (longer N-terminal part of the β2 cytoplasmic tail, with WNN)]",1.1e+08 M⁻¹,9.4 nM,0.00013 s⁻¹,14000 M⁻¹ s⁻¹
CKLLITIHDRKEFAKFEEERARAKWDTANNPLYKEATSTFTNITYRGT [β3 cytoplasmic tail peptide (integrin β3)],4.4e+06 M⁻¹,230 nM,0.0059 s⁻¹,26000 M⁻¹ s⁻¹
CKVGFFKRQYKEMMEEANGQIAPENGTQTPSPPSEK [αX cytoplasmic tail peptide (integrin αX)],5.7e+06 M⁻¹,180 nM,0.022 s⁻¹,130000 M⁻¹ s⁻¹
CLKSQWNNDNPLFKSATTTVMNPKFAES [β2C peptide (C-terminal part of the β2 cytoplasmic tail)],2e+07 M⁻¹,51 nM,0.00031 s⁻¹,6100 M⁻¹ s⁻¹
"CGQEAGDPGSLKPLHEKDSESGGGKD [αLC peptide (C-terminal, membrane-distal part of the αL cytoplasmic tail)]",370000 M⁻¹,,,
"CKVGFFKRNLKEKMEAGRGVPNGI [αLN peptide (N-terminal, membrane-proximal part of the αL cytoplasmic tail)]",6.6e+07 M⁻¹,16 nM,0.00013 s⁻¹,8400 M⁻¹ s⁻¹
CKLGFFKRQYKDMMSEGGSPGAEPQ [αM cytoplasmic tail peptide (integrin αM)],2.5e+06 M⁻¹,400 nM,0.011 s⁻¹,28000 M⁻¹ s⁻¹
"αL cytoplasmic tail peptide (integrin αL, LFA-1 α subunit) (peptide) peptide: CKVGFFKRNLKEKMEAGRGVPNGIPAEDSEQLASGQEAGDPGSLKPLHEKDSESGGGKD",6.9e+07 M⁻¹,15 nM,0.00012 s⁻¹,8500 M⁻¹ s⁻¹
CKALIHLSDLREYRRFEKEKLKSQ [β2N peptide (N-terminal part of the β2 cytoplasmic tail)],9.6e+06 M⁻¹,110 nM,0.00063 s⁻¹,6100 M⁻¹ s⁻¹
